What was measured:
HER1 [1] = target: T1, HER1 (UniProt P00533 25-1210, limits assumed); assay: Western blot on lysates of transfected HEK293 cells, RT and 37 C
T1 construct: whole, on cells; also called EGFR
Method: Lysates were prepared from several HEK293 control cell lines. The cells were transiently transfected with plasmids coding for HER1, HER2, HER3 or HER4. HEK293 cells transfected with the mammalian expression vector pRK5 were used as negative control. For western blotting 10 μg protein lysates were loaded per lane on 4-12% NuPage SDS gels (Invitrogen). Western blotting was performed according to standard protocols with standard NuPage buffers and reagents (Invitrogen). After blocking the membrane was incubated with MAK<humanHER3> M-7.2.42, MAK<humanHER3> M-7.3.8 or the HER3 monoclonal antibody DAK-H3-IC from Dako. MAK<humanHER3> M-7.2.42 and MAK<humanHER3> M-7.3.8 were used at a concentration of lng/ml. Primary antibody incubation was performed for 60 min at RT and at 37° C. HRP-conjugated anti-mouse Fab was used as secondary antibody. The dilution of DAK-H3-IC antibody was made as recommended by its manufacturer and the choice of secondary (detection) antibody was adapted as required. The membrane was developed with ECL (Amersham) and exposed to an x-ray film.

HER4 = target: T2, HER4 (UniProt Q15303 26-1308, limits assumed); assay: IHC on FFPE transfected HEK293 cells, Ventana Benchmark XT
T2 construct: whole, on cells
Method: (§1) The suitability of the newly developed HER3 monoclonal antibodies MAK<humanHER3> M-7.2.42 and MAK<humanHER3> M-7.3.8 was shown using FFPE cell line controls. Therefore HER1, HER2, HER3 or HER4 transfected or untransfected HEK293 cells, respectively, were fixed with 4% PBS buffered formaldehyde and were subsequently embedded in paraffin.
(§2) All staining procedures were performed on the Ventana Benchmark XT automated IHC stainer using Ventana buffers and reagents, i.e., amongst others, the standard cell conditioning 1 (CC1) reagent for sample preparation and ultraView DAB as detection system.
(§3) As obvious from FIG. 3 the newly developed HER3 monoclonal antibodies MAK<humanHER3> M-7.2.42 and MAK<humanHER3> M-7.3.8 show specific membrane staining only on HER3 transfected cells. HER1, HER2 and HER4-transfected cells and control cells are negative. HER3 monoclonal antibodies MAK<humanHER3> M-7.2.42 and MAK<humanHER3> M-7.3.8 show good IHC-staining with HER3 transfected cells if used according to standard protocols on the Ventana Benchmark XT analyzer (see FIG. 3, HER3 captioned cell staining).

HER2 = target: T3, HER2 (UniProt P04626 23-1255, limits assumed); assay: as above
T3 construct: whole, on cells
Method: as §1, §2, §3

[2] = target: T4, biotinylated HER3 peptide (screening peptide with a sequence corresponding to the immunogen); assay: Biacore A100 SPR, antibody captured from hybridoma supernatant on anti-mouse Fc, streptavidin-grafted biotinylated HER3 peptide as analyte, 25 C
T4 construct: Synthetic peptide of HER3; also called HER3 antigen peptide; peptide-graft
Method: For selection of suitable antibodies, a kinetic screening was performed on hybridoma culture supernatants. The measurements were done using Biacore SPR technology. The CM5 series S sensor chip was mounted into an A100 instrument (GE Healthcare, Biacore) and was hydrodynamically addressed in HBSN buffer (10 mM HEPES pH 7.4, 150 mM NaCl) according to the manufacturer's instructions. The system buffer was HBS-ET (10 mM HEPES pH 7.4, 150 mM NaCl, 0.05% TWEEN 20). The sample buffer was the system buffer supplemented with 1 mg/ml CMD (Carboxymethyldextrane, Sigma #86524). The system was driven at 25° C.
10000 RU RAMIgGFC (relative units of rabbit-anti-mouse F(c)gamma-fragment of the respective mouse immunoglobulin G subclass/Jackson Laboratories) were immobilized according to the manufacturer's instructions using EDC/NHS chemistry on the flow cells FC1 (anti-mouse F(c)gamma of subclass 1), FC2, FC3 and FC4, respectively, on the sensitive spots 1, 2, 4 and 5 on each flow cell. The spots were deactivated using 1M ethanolamine.
The binding activity of antibodies against the HER3 peptide was kinetically tested. Antibodies were captured by a 1 min injection at 10 μl/min of crude hybridoma supernatants diluted 1:3 in sample buffer. Biotinylated Her-3 peptides were carefully singly grafted on streptavidin to enlarge the molecular weight of the complexes and to increase the mass sensitivity of the system. Since the antigen complex dissociation kd is independent of the analyte injection concentration, this is a legal method to increase the sensitivity of the system.

HER1 [3] = target: T1, HER1; assay: IHC on FFPE transfected HEK293 cells, Ventana Benchmark XT
Method: as §1, §2, §3

T2 sequence (Q15303 26-1308 limits assumed): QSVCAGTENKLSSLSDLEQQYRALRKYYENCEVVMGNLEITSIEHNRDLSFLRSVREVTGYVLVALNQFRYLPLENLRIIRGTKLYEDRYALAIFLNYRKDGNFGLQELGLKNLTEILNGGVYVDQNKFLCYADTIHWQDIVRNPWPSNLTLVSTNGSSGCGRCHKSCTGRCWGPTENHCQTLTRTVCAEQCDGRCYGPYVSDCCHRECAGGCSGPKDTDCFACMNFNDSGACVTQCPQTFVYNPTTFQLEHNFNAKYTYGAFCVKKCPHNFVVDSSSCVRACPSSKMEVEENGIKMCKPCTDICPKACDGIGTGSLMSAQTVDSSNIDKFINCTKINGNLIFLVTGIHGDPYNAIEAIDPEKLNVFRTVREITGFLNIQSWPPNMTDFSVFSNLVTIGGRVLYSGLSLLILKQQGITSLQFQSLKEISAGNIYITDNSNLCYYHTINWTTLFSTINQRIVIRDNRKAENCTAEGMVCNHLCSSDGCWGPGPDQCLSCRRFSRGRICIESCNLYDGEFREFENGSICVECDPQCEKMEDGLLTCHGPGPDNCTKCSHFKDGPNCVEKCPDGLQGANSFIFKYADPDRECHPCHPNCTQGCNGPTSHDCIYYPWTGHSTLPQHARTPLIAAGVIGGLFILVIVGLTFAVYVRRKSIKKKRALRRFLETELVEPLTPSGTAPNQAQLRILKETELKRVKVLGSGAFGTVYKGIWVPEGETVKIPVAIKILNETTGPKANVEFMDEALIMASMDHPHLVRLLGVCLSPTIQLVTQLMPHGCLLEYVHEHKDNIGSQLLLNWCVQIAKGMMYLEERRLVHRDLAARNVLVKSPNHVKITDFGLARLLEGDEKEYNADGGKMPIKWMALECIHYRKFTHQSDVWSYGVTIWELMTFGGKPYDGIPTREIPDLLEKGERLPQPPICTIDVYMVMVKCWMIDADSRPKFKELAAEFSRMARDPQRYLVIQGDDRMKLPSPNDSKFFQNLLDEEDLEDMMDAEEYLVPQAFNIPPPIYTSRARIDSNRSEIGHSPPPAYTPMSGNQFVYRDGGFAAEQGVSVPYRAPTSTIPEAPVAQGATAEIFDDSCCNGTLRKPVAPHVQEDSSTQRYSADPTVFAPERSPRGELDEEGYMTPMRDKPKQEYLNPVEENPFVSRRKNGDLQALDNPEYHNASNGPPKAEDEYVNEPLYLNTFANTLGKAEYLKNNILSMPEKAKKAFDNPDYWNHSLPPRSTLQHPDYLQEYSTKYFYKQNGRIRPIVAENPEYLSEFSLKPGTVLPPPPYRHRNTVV

B1: MAK<humanHER3> M-7.2.42 (antibody, V domains shown)
VH: EVQLLQSGPELVKPGASVKMSCKASGYTFTDYNLHWVKQSHGRTLEWIGYFNPYNGGTFYTQKFKDKATLTINKSSSTAYMELRSLTSEDSAVYYCTRRYFDGSSYFDYWGQGTTLTVSS
VL: DVLMTQTPLSLPVSLGDQASISCRSSQTIVHSNGNTYLEWYVQKPGQSLKLLIYKVSNRFSGVPDRFSGSGSGTDFTLKISRVEAEDLGVYYCFQGSHVPRAFGGGTKLEIKR
notes: Tested as crude hybridoma supernatant in the Biacore screening; also called HER3 monoclonal antibody MAK<humanHER3> M-7.2.42
B1: no binding (tested: lng/ml (so in the source)) (HER1 [1]); no binding (HER4); no binding (HER2). For the same binder, the koff [2] was 4.26e-05 s⁻¹ and the t½ diss [2] was 4.52 h.

B2: MAK<humanHER3> M-7.3.8 (antibody, V domains shown)
VH: EVQLQQSGPELAKPGASVKMSCKASGYTFTDYNLHWVKQSHGKTLEWIGYFNTYNGGIFYTQKFKDKATLTINKSSSTAYMELRSLTSEDSAVYYCTRRYFDGSSYFDYWGRGTTLTVSS
VL: DVLMTQIPLSLPVSLGDQASISCRSSQSIVHSNGNTYLEWYVQKPGQSPKLLIYKVSNRFSGVPDRFSGSGSGTDFTLKISRVEAEDLGVYYCFQGSHAPRTFGGGTKLEIKR
notes: Tested as crude hybridoma supernatant in the Biacore screening; also called antibody 7.3.8; HER3 monoclonal antibody MAK<humanHER3> M-7.3.8
B2: no binding (HER1 [3]); no binding (HER4); no binding (HER2). For the same binder, the koff [2] was 2.66e-05 s⁻¹ and the t½ diss [2] was 7.25 h.

Source: patent US20170096487A1 (VENTANA MEDICAL SYSTEMS, published 2017)
